assay: yeast display, Sf9 membrane polyspecificity reagent, FACS + sequencing; frameworks hold sequencing errors
Method in brief: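 Genes from sorted yeast were amplified by colony PCR, read by MiSeq 2 × 250 sequencing and filtered on CDR length. These cells carried a synthetic nanobody library in Saccharomyces cerevisiae BJ5465 and were sorted by FACS into low and high (top ~1%) gates on anti-HA and streptavidin fluorescence. Polyreactivity is labelled according to the gate of origin.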

| Sequence | polyreactivity (PSR sort gate) |
| --- | --- |
| QVHLVESGGVLVQAGGSLRLSCAASGRIFYRYAMGWYRQAPGKERELVAAITHRGGSTYYADSVKGRFTISRDNAKNTVYLQMNSLKPEDTAVYYCAGRITEAVADYVGHKPYDYWGQGTQVTVSS | low polyreactivity |
| QVHLVESGRGFVQAGGSLRLSCAASAFTFHSYAMGWYRQAPGKERELVASISSSGSTNYADSVKGRFTISRDNEKNTVYLQMISLKPEDTAVSYCAAESRYPFIYEYWGQVTQVTVSS | low polyreactivity |
| QVHLVESGVGLVQAGGSLRLSCAASGITFGYYAMGWYRQAPGKERENVAAITRRGGSTYYADSVKGRFTISRDNAKNTVYLQMNSLKPVDTAVYYCAAVSYRYWFIEDNYWGQGTQVTVSS | high polyreactivity |
| QVHLVESGVGLVQAGGSLRLSCAASGQIFPYYAMGWYRPAPGKETELVAAITSGGGTYYADSVKGRFTISRDNAKNTVYLQMNSLKPEDTAVYYCAVGSYGHPKHRRNLDYWGQGTQVTVSS | low polyreactivity |
| QVHLVESGVGLVQAGGSLRLSCASSGSTFYAYAMGWYRQAPGKERELVAAIDSGGSTYYADSVKGRFTISRDNAKNTVYLPMNILKPEDSAVYYCAVRHRYTRAYWGRDYWGQGTKVTVSS | low polyreactivity |
| QVHLVESGVGLVQAGGSLRLSCASSGSTYKPNALGWYSQAPGKESEFVAAITSGSTYYADTVKGRYTISRDNAKYNVYLQMNSLKPEDTAVYYCATSVRGKSPYRKSGSYYYWGQGTQVTVSS | high polyreactivity |
| QVHLVESGVGLVQARGSLRLSCASSGSTFGGNAMGWYRQAPGTERELVAAIDSGGGTNYADSVKGRFTIARDNAKNTVYLQMTSLKPEDTAVYYCNADWAVRSTQNSSSGHDYWGQATQVTVSS | low polyreactivity |
| QVHLVESGVGLVQSGGSIRLTCAASGSTFHVYTKGSYRQAPGKEREFVASISCSGSSTYYADSVKGRFTISRDNAKNTVYLQMNSLKPEDTAVYYCNVDRWWLGWYKFNYWGQGTQVTVSS | high polyreactivity |
| QVHLVESVGGLVQAGGSHRLSCAASGRTLGFYAMGWYRQAPGKERELVAAINWSGGSTYYADSVKGRFTISRDNAKNTVYLQMNSLKPEDTAVYNCGVGTNYYDYWGQGTQVTVSS | high polyreactivity |
| QVHLVESVGGLVQAGGSLRISCAASGRIFSKYAMGWYRQAPGKDRELVGAITSSTKYADSVKGRFTISRDNAKNTVYLQMHSLKPEDTAVYSCNAEFVWHTYYGADFKMDYWGQGTQVTVSS | high polyreactivity |
| QVHLVESVGGLVQAGGSLRLSCAASGRTFPYNAMGWYIQAPGKERELVAVISKGGGRTYYADSVKGRFTISLDNAKNTVYLQMNSLKPEDTAVYYCDARYDGSSDYRLNYWGQGTQVTVSS | high polyreactivity |
| QVHLVESVGGLVQAGGSLRLSCAASGRTFRRYAMVWYRQAPGKERELVATITSADSTNYADSVKGRFTISRDNAKNTVYLQMNSLKPEDTAVYYCAKRWGRYAMYYWGQGTQVTVSS | high polyreactivity |
| QVHLVESVVCLVQAGGSLALSCASYGSIFRYYALGWYIQGTGKESELVAGITWGCRRTFYADSEKGRFTISRHNAKNTFYIQMNILKPEDTAVCYCAPRWFWKAYRFYYWGQGTQLTVSS | high polyreactivity |
| QVHLVETGGGLVHAGGSLRLSCAASGFIFGVNAMGWYRQAPGKERELDAAITRNGGSTYYADSVKGRFTISRDYAKNTVYLQMNSLKPEDTAVYYCAKYVRRAPSSIDVDYWGQGTQVTVSS | high polyreactivity |
| QVHLVETGGGLVQAGGSLRLSCAASGRTFYVNAMGWYRQAPWKERELVARITSGGSTYYADSVKGRFTISRDNAKNTVYLQMNSLKPEDTAVYYCAKKYIGYQVWIHSTRRYDYWGHGTQVTVSS | low polyreactivity |
| QVHLVETGGGLVQAGGSLRLSCAASGSIFSSYHMVWYRQAPGKERELVASISSGGSTNYADSVKGRFTISRDNAKNTVYLHMNSLNPEVTAVYYCNVDLYNWRGDSTGYDYWGQGTQVTVSS | low polyreactivity |
| QVHLVETGGGLVQAGGSPRLSCAASGRTLLDYGLGWYRQAPGKERELVAGITSSGGRSYADSVKGRLTISRDNAKNTVYLEMNSLKPEDSAGYYCAAYLNLSELLRYHYWGKGTQVTVSS | low polyreactivity |
| QVHLVETGRGLLQSGGSLRISCAASGRTFIYNAMGWYRQAPGKERELVARISSGGGNTYYAYSVKWRFTISRDNANNTVYLLMNSLKPEDTAVYYCAIGWRPSFSYYWGQGTQVTVSS | high polyreactivity |
| QVHLVQSGGGIVQEGGSLRISCAASGFTLIHYAMGWYRQAPGKERELVAGITTSGGSTYYADSVKGRFTISRDNAKNTVYLQMKSLKPEDTGVYYCADSSNTRGDYWGQGTQVTVSS | high polyreactivity |
| QVKHVESGGGLVKAGGSLRLSCPAAGRIIDKYAMGWYRQSPGKERELVATITSSGGSTYYADSVKGRFTISRDTAMNNVYLQMNSLKPEDTAVYYCDALDRTGYSRGETRSLYYFWGQGTQVTVSS | low polyreactivity |
| QVKHVESVGRLVQAGGSLRLSSASSGRIFRSYAMGCYRQAPGKESEYVAAISRSGGRTYYADSVKGRFTISRDNAKNTVYLQMNSLKPEDSAVYYCAVVDYHVHSSDYNYWGQGTQVTVSS | high polyreactivity |
| QVKLEESGGGLLQAGGSLRLSCAASGRIIGDYAMGSYRQAPGKERELVAANDRGGSTHYADSVKGRYTISRDNAKNTFYFQMNSLKPEDTAVYYCNLDVWANIKSRCIFAGWYDYWGQGTQVTVSS | low polyreactivity |

| Sequence | polyreactivity (PSR sort gate) |
| --- | --- |
| QVKLLDSGGGLVQAGGSLRLTSAASGRIFYTNAMGWYRQEPGKERELVAVISWGGDTTYYADSVKGRFTISRDNAKNTVYLQMTSLKPEDTAVYYCNADWGATYEIYDSWGQGTQVTVST | low polyreactivity |
| QVKLLESGGGLVQAGGSLLLSCAASGSIFDGYSMVWYRQAPGKEREFVASIRFSTGRTYYADSVKGRFTISRDNAKNTVYLQMNSLKPEDTAVYYCNAPQGFVWRYSSWGPYDYWGQGTQVTVSS | high polyreactivity |
| QVKLVESAGGLVKAGGSLRLSSAASGITFNLYAMGCYSQSPGKERELVAAISWSGGSTYYADSVKGRFTISREHAKNTVYLQMNSLNQEDTAVYYCAAAWDYSAPYTYIYDYWGLGTQVTVSS | low polyreactivity |
| QVKLVESAVGLVQAGGSLRLSCAASGRTFCSYAMGWYRQAPGKERELVAAISRGGSRTYYADSVKGRFTISRDNAKNTVYLQMNSLKPEDTAVYYCAADPTASGHFLGQVDYWGQGTQVTVSS | high polyreactivity |
| QVKLVESAVRLVQAGGSLRLSCAASASTLYRYSMGLYRQAPGKERELVAAISSSGGSSYYADSVKGRFTISRDNAKNTVYLQMNRLKQEDTAVYYCSAAALRTIGAGYRYGNWGQGTQVTVSS | high polyreactivity |
| QVKLVESGAGLVQAGASLRLSCAASGLIFHQYAMGWYRQAPGKERELVAAITRSGTRTYYADSVKGRFTISRDNEKNTVYLQMNSLKPEDTAVYYCAAADTQGVSMDYWGQGTQVTVSS | high polyreactivity |
| QVKLVESGGALVQAGGSLRLSCAASGRNFSSYAMGRYRQAPGKERYLVARISSSGGGTSYADSVKGRFTISRDNAKNTVYLQMNSLKPEDTAVYYCAAEDQYYRYFFSYEYWGQGTQVTVSS | high polyreactivity |
| QVKLVESGGCLVQAGCSLRLSCAASGRTFHGYAMGWYRQAPGTERELVAAITVSGDSTYYADSVKGRFTISRDNAKNTVYLQMNSLKPEDTAVYYCNASFREPSTPVYLVAFDYWGQGTQVTVSS | low polyreactivity |
| QVKLVESGGGLVQAGGSIRLSCAASGSTFATYAMGCYRQAPGKERELVAAITSGGSTDYADSVKGRFTISRDNAKNTVYLQMNSQKPEDTAVYYCNATWVLLSYYYLFWCYDYWGQGTQVTVSS | low polyreactivity |
| QVKLVESGGGLVQAGGSISLTCAASGSIFYKYVMGWYRQAPGKERELVAAISRGGGSTYYADSVKGRFTISRDNAKNTVYLQMNSLKPEDTAVYYCYAVGRPRYGHGFDHWGQGTQVTVSS | high polyreactivity |
| QVKLVESGGGLVQAGGSLRISCAASGRIFKIYAMGWYRQAPGKERELVAAISRGGRTYYADSVKGRFTISRDNAKNTVDLQMNSLKPEDTEVYYCAADLLISPEFYYWGQGTQVTVSS | high polyreactivity |
| QVKLVESGGGLVQAGGSLRLSCAASGFTFGRYAMGWYRQAPGKERELVAAITRRGGSTYYADSVKGRFTISRDNAKNTVYLQMNSLKPEDTAVYYCNKVKQTRTDHDYWGQGTQVTVSS | high polyreactivity |
| QVKLVESGGGLVQAGGSLRLSCAASGFTIANYAMGWYRQAPGKERELVAAITTSGSTYYADSVKGRFTISRDNAKNTVYLQMNSLKPEDTAVYYCAVSIWVWFASGFDYWGQGTQVTVSS | high polyreactivity |
| QVKLVESGGGLVQAGGSLRLSCAASGGTFGSNAMGWYRQAPGKERHLVAAISTTGGTTYYADSVKGRFTISRDNAKNTVYLQMNSLKPEDTAVYYCAKDGYVYGDWYTYAYDYWGQGTQVTVSS | low polyreactivity |
| QVKLVESGGGLVQAGGSLRLSCAASGIIFSGNAMGWYRQAPGKERELVAAITRGGRTYYADSVKGRFTISRDNAKNTVYLQMNSLKPEDTAVYYCAADDPHRAREYDYWGQGTQVTVSS | high polyreactivity |
| QVKLVESGGGLVQAGGSLRLSCAASGLTFRSYAMRWYRQAPGKERELVAAITRSGGSTYYADSVKGRFTISRDNAKNTVYLQMNRLKPEDTAVYYCAADYGRTLTGGDYWGQGTKVTVSS | high polyreactivity |
| QVKLVESGGGLVQAGGSLRLSCAASGNIFSIYAMGWYRQAPGKERELVAAITARGGRTYYADSVKGRFTFSRDNAKNTVYLQMNSLKPEDTAVYYCNAVRSTKGYWVPFGGDYWGQGTQGTVSS | low polyreactivity |
| QVKLVESGGGLVQAGGSLRLSCAASGRIFWSNAMVWYRQAPGKERELVAAISRRGGRTYYADSVKGRFTISRDNAKNTVYLQMNSLKPEDTAVYYCAADGTADYDYWGQGTQVTVSS | high polyreactivity |
| QVKLVESGGGLVQAGGSLRLSCAASGSIFGSNAMGWYRQAPGKERELVAAITGRGGRTYYADSVKGRFTISRDNAKNTVYLQMNSLKPEDTAVYYCAAIRREVVAGDYWGQGTQVTVSS | high polyreactivity |
| QVKLVESGGGLVQAGGSLRLSCAASGTFYYNTMGWYIQAPGTERELVAAITSGGRTYADSVKGRFTISRDNAKNTVYLQMNSLKPEDTAVYYCAASWYFFSPGGTFGYWGQGTQVTVSS | low polyreactivity |
| QVKLVESGGGLVQAGGSLRLSCAAYGSTFAGYAMGWYRQAPGKERELVAAISVSGGSTDYADSVKGRFTISRDNAKNTVYLQMNSLKPEDTAVYYCAAVYVRNQWWRNYYWGQGTQVTVSS | low polyreactivity |

Source: the nanobody polyreactivity screen of Harvey et al. (2022)
